Source: the supplement of paper PMC10065799, “High-throughput profiling of sequence recognition by tyrosine kinases and SH2 domains using bacterial peptide display” (eLife, 2023)

How the values were obtained:
c-Src = assay: phosphorylation enrichment, bacterial display (enrichment ratio); higher = better substrate or ligand; peptides without Tyr show the background
c-Abl (mouse) = assay: as above
Hck = Hck (UniProt P08631); assay: as above
MERTK = MERTK (UniProt Q12866); assay: as above
AncSZ = assay: as above
EPHB2 = EPHB2 (UniProt P29323); assay: as above
Fyn = Fyn (UniProt P06241); assay: as above
Fes = Fes (UniProt P07332); assay: as above
Jak2 = Jak2 (UniProt O60674); assay: as above
FGFR1 = FGFR1 (UniProt P11362); assay: as above
FGFR3 = FGFR3 (UniProt P22607); assay: as above
EPHB1 = EPHB1 (UniProt P54762); assay: as above
Fer (mouse) = assay: as above
SHP2-C SH2 = assay: SH2 binding enrichment of the phosphorylated peptide, bacterial display (enrichment ratio); higher = better substrate or ligand; peptides without Tyr show the background
c-Src SH2 = assay: as above
Grb2 SH2 = Grb2 SH2 (UniProt P62993); assay: as above
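Throughout, for SH2 binding enrichment of the phosphorylated peptide, bacterial display: peptide library displayed on the E. coli surface as eCPX fusions, selected cells deep-sequenced, score is each peptide's frequency after selection divided by its frequency in the input.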
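Throughout, for phosphorylation enrichment, bacterial display: 11-residue human phosphosite peptides and single-mutation variants displayed on the E. coli surface, counted by deep sequencing, each peptide's frequency after selection divided by its frequency in the unselected input library; frequency after pTyr selection over input frequency; kinase dosed for 20-30% of maximal phosphorylation in three min.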

MERTK, sequence (Q12866 whole entry, looked up): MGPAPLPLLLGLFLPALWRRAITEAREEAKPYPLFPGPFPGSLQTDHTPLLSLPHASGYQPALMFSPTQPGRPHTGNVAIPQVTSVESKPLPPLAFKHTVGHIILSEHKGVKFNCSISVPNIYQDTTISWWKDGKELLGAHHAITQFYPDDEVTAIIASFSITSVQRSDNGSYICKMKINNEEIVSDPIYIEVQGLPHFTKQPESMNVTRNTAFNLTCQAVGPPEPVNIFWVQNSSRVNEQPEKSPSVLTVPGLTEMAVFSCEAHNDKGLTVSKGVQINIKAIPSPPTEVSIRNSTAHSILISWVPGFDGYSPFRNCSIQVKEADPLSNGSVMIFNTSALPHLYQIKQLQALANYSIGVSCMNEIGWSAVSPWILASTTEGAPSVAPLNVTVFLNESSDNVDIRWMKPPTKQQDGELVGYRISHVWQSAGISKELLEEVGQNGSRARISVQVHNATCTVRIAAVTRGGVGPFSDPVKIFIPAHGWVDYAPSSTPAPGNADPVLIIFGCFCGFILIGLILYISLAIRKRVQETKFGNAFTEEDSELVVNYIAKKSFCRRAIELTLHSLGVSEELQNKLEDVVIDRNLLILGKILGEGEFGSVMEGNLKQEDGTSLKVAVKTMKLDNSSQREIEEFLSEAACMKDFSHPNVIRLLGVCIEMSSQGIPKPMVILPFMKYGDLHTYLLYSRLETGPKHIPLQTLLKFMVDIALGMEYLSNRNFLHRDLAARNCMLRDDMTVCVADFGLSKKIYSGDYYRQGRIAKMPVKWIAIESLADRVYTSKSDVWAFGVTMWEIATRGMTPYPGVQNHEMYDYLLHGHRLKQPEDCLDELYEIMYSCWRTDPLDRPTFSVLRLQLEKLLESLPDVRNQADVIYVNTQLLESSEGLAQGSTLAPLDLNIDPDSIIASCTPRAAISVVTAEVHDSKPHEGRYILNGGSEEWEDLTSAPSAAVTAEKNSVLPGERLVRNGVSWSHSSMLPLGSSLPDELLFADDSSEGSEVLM
FGFR3, sequence (P22607 whole entry, looked up): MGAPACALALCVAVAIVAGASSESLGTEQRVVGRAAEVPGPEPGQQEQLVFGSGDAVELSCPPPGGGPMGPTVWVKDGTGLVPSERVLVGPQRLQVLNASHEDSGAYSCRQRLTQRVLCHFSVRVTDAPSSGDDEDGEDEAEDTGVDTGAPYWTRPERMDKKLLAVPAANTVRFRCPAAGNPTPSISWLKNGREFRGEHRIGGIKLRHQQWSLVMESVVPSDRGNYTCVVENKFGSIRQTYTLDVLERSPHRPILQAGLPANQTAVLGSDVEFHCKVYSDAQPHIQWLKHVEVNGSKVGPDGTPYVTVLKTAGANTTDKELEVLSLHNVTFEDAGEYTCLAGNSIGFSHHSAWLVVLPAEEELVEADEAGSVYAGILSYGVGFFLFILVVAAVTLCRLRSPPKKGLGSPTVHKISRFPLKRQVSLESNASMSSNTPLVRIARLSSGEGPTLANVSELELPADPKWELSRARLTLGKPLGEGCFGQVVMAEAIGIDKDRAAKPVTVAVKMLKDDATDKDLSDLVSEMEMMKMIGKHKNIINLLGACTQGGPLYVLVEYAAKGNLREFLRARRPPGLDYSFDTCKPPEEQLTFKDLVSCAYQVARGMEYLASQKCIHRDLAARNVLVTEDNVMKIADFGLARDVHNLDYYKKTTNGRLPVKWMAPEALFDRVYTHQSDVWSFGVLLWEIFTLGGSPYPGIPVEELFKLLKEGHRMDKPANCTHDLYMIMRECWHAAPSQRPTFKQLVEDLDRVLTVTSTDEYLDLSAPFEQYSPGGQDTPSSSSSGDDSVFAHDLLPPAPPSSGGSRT
FGFR1, sequence (P11362 whole entry, looked up): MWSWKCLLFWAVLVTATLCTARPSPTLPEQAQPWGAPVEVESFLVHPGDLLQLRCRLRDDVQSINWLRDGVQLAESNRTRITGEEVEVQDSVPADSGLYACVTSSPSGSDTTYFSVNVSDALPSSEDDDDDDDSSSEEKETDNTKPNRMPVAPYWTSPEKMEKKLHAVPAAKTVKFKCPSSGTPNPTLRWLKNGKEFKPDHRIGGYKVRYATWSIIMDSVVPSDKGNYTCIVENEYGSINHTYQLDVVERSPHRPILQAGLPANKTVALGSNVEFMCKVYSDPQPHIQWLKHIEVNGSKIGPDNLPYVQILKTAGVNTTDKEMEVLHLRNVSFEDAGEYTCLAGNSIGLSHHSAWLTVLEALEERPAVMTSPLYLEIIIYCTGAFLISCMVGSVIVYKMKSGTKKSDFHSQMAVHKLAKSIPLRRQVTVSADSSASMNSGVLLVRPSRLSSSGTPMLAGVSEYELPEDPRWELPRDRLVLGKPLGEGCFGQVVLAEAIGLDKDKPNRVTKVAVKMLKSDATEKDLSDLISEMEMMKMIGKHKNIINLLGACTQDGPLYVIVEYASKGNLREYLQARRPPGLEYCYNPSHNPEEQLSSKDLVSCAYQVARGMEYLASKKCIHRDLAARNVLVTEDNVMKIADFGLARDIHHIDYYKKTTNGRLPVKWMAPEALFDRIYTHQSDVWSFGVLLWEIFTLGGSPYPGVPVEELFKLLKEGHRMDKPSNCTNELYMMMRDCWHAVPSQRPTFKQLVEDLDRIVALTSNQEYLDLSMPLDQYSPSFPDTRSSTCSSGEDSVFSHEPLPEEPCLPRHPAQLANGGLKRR
EPHB1, sequence (P54762 whole entry, looked up): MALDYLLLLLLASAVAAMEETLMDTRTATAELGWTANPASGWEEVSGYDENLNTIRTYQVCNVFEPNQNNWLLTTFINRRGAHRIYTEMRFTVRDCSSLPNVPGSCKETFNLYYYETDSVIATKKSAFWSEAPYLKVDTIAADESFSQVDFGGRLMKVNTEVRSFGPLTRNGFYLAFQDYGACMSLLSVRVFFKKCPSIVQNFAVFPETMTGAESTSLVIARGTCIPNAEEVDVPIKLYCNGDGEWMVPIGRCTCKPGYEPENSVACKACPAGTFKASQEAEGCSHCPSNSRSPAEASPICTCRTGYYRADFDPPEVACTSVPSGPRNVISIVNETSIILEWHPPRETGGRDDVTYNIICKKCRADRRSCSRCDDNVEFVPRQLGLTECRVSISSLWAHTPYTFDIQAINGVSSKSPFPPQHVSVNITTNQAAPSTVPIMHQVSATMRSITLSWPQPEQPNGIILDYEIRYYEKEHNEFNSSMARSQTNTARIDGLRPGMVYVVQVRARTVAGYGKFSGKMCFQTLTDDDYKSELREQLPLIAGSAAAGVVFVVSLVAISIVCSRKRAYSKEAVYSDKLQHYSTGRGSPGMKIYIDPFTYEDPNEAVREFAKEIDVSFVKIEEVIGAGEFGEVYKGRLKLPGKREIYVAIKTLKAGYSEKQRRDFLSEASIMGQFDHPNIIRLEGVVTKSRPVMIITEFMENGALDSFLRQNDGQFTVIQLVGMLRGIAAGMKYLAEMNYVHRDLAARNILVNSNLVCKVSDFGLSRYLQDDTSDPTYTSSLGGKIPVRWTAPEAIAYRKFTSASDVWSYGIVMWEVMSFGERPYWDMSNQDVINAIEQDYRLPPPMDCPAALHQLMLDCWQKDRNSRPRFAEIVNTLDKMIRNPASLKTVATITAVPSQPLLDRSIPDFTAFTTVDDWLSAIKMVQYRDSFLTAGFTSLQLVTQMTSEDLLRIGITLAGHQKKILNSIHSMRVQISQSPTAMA
Jak2, sequence (O60674 whole entry, looked up): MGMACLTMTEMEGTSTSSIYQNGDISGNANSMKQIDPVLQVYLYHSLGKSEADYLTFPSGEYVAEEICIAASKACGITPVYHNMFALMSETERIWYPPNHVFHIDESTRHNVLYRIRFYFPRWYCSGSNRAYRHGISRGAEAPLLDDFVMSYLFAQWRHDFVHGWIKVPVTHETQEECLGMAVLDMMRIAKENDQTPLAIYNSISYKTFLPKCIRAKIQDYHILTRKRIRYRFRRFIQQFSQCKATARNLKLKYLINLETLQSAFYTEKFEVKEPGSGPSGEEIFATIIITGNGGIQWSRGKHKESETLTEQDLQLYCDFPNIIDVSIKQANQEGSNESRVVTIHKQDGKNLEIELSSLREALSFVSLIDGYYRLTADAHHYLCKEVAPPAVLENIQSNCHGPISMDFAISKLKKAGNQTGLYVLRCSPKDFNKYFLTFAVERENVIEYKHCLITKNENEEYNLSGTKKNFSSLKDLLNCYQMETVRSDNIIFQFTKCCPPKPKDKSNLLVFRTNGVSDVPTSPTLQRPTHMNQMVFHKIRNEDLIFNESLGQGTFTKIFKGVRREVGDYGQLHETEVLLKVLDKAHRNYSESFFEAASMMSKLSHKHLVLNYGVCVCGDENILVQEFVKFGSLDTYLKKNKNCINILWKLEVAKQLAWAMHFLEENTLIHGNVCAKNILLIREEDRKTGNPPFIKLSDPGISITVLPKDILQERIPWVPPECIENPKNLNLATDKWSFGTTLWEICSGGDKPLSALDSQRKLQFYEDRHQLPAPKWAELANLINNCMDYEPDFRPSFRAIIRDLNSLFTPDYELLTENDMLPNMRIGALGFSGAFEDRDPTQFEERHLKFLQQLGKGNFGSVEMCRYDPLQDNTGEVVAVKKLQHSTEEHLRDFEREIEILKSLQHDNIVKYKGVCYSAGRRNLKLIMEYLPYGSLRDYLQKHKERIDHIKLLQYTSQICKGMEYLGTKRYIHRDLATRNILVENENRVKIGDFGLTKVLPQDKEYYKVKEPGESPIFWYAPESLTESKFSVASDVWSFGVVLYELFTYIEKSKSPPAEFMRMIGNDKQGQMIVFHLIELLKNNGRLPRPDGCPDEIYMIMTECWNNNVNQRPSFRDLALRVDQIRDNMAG

Sequence | SH2 binding enrichment (SHP2-C SH2) | SH2 binding enrichment (c-Src SH2) | SH2 binding enrichment (Grb2 SH2) | phosphorylation enrichment (c-Src) | phosphorylation enrichment (c-Abl (mouse)) | phosphorylation enrichment (Hck) | phosphorylation enrichment (MERTK) | phosphorylation enrichment (AncSZ) | phosphorylation enrichment (EPHB2) | phosphorylation enrichment (Fyn) | phosphorylation enrichment (Fes) | phosphorylation enrichment (Jak2) | phosphorylation enrichment (FGFR1) | phosphorylation enrichment (FGFR3) | phosphorylation enrichment (EPHB1) | phosphorylation enrichment (Fer (mouse))
AEMTGYVMTRW [MAPK13_Y182_V184M] | 0.594 | 0.467 | 0.67 | 0.397 | 0.709 | 0.561 | 0.364 | 1.29 | 0.578 | 0.493 | 1.23 | 1.11 | 0.653 | 0.885 | 0.656 | 0.537
AFGGGYGGVLT [KRT19_Y65_YF] | 0.719 | 0.455 | 0.784 | 0.38 | 0.685 | 0.454 | 0.286 | 0.699 | 0.407 | 0.378 | 0.647 | 0.625 | 0.338 | 0.446 | 0.478 | 0.312
AGADGYGFLAP [FOXL2_Y186_YF] | 0.661 | 0.456 | 0.832 | 0.797 | 0.698 | 0.71 | 0.618 | 0.846 | 0.508 | 0.517 | 0.737 | 0.857 | 0.652 | 0.694 | 0.391 | 0.611
AGHEEYSAMRD [KRAS_Y64_Q61H] | 0.713 | 0.512 | 0.777 | 0.558 | 0.616 | 0.542 | 0.532 | 0.797 | 0.578 | 0.588 | 0.981 | 0.854 | 0.51 | 0.588 | 0.462 | 0.43
AGNPAYRSFSN [IL4R_Y497] | 0.466 | 0.431 | 0.751 | 0.45 | 0.618 | 0.424 | 0.39 | 0.52 | 0.318 | 0.402 | 0.575 | 0.447 | 0.366 | 0.414 | 0.347 | 0.389
AGTIPYHAHLD [ASS1_Y291_L290P] | 0.772 | 0.554 | 0.838 | 0.377 | 0.474 | 0.484 | 0.456 | 0.507 | 0.369 | 0.415 | 0.645 | 0.447 | 0.458 | 0.435 | 0.395 | 0.357

More lines, main results first:

SH2 binding enrichment (SHP2-C SH2) | SH2 binding enrichment (c-Src SH2) | SH2 binding enrichment (Grb2 SH2) | Sequence | phosphorylation enrichment (c-Src) | phosphorylation enrichment (c-Abl (mouse)) | phosphorylation enrichment (Hck) | phosphorylation enrichment (MERTK) | phosphorylation enrichment (AncSZ) | phosphorylation enrichment (EPHB2) | phosphorylation enrichment (Fyn) | phosphorylation enrichment (Fes) | phosphorylation enrichment (Jak2) | phosphorylation enrichment (FGFR1) | phosphorylation enrichment (FGFR3) | phosphorylation enrichment (EPHB1) | phosphorylation enrichment (Fer (mouse))
0.438 | 0.438 | 0.777 | AGGTRYRYVSQ [UCN3_Y95_R91G] | 0.507 | 0.474 | 0.435 | 0.519 | 0.529 | 0.525 | 0.491 | 0.616 | 0.417 | 0.397 | 0.381 | 0.574 | 0.377
1.28 | 0.528 | 0.867 | AGQEDDDRLRP [RAC1_Y64_Y64D] | 0.46 | 0.703 | 0.591 | 0.439 | 1.15 | 0.669 | 0.608 | 1.28 | 1.12 | 0.607 | 0.637 | 0.497 | 0.572
0.412 | 0.404 | 0.938 | AGQERYRAITS [RAB11B_Y73] | 0.512 | 0.605 | 0.527 | 0.487 | 0.641 | 0.53 | 0.554 | 0.627 | 0.704 | 0.613 | 0.466 | 0.413 | 0.469
